Measured values: publication PMC7898620
Several values for one entry are separate records, joined by “and”; a condition that tells them apart may be missing. Equal values may be shown once.

Tests used:
[1] = target: RbmA R219A mutant (Vibrio cholerae); test: SEC-SAXS; analytical Superdex 200 increase 3.2/300 column in line with SAXS, 0.075 ml/min; without MgPO4; details: scale: mol monomer per mol dimer
[2] = target: RbmA W119G mutant (Vibrio cholerae); test: as above; details: scale: mol monomer per mol dimer
[3] = target: Rugosity and biofilm structure modulator A (RbmA), wild type (Vibrio cholerae); test: AUC; sedimentation velocity, 40,000 RPM, RbmA 5 mg/ml, absorbance at 250 nm and Rayleigh interference; without MgPO4
[4] = target: Rugosity and biofilm structure modulator A (RbmA), wild type (Vibrio cholerae); test: SEC-MALS; ENrich SEC 70 column, 20 mM Tris pH 8.0, 200 mM NaCl, 2 mM DTT, 0.02% NaN3, 240-360 ug protein injected; without MgPO4
[5] = target: Rugosity and biofilm structure modulator A (RbmA), wild type (Vibrio cholerae); test: time-resolved SAXS; stopped-flow mixing, 5 mg/ml RbmA in 20 mM Tris/HCl pH 8, 100 mM NaCl with 10 mM potassium phosphate and 2.5 mM MgCl2; followed for 3 hr
[6] = target: RbmA E160A mutant; test: SEC-MALS; details: parent: est. 58; read off a plot
[7] = target: RbmA R219A mutant; test: SEC-MALS; details: parent: est. 58; read off a plot
[8] = target: RbmA W119G mutant; test: SEC-MALS; details: parent: est. 58; read off a plot
[9] = target: RbmA W222G mutant; test: SEC-MALS; details: parent: est. 58; read off a plot

RbmA R219A mutant (natural protein)
monomer:dimer molar ratio [1]: 3.5

RbmA W119G mutant (natural protein)
dimer:monomer molar ratio [2]: 2.5

Rugosity and biofilm structure modulator A (RbmA), wild type (natural protein)
stoichiometry N [3]: 4 and 2 | stoichiometry N [4]: 2 | stoichiometry N [5]: 6

Rugosity and biofilm structure modulator A (RbmA), wild type E160A
other: SEC-MALS average molecular weight [6]: 57 kg/mol

Rugosity and biofilm structure modulator A (RbmA), wild type R219A
other: SEC-MALS average molecular weight [7]: 36 kg/mol

Rugosity and biofilm structure modulator A (RbmA), wild type W119G
other: SEC-MALS average molecular weight [8]: 49 kg/mol

Rugosity and biofilm structure modulator A (RbmA), wild type W222G
other: SEC-MALS average molecular weight [9]: 58 kg/mol
